What is called IC50 is the point on the concentration scale where inhibition reaches its midpoint.

The values that follow come from patent US20220403048A1, “BINDING MOLECULES TO ARGINASE II [ARG2]” (Cancer Research Technology Limited, priority 2019, published 2022).

Test [1] has as its target T1, THP-1 lysate derived human trimeric ARG2 (Homo sapiens, UniProt P78540).
T1 construct: expressed in transfected cells; host or cells: THP-1 cells overexpressing human ARG2 (cell lysate)
T1 sequence (P78540 23-354): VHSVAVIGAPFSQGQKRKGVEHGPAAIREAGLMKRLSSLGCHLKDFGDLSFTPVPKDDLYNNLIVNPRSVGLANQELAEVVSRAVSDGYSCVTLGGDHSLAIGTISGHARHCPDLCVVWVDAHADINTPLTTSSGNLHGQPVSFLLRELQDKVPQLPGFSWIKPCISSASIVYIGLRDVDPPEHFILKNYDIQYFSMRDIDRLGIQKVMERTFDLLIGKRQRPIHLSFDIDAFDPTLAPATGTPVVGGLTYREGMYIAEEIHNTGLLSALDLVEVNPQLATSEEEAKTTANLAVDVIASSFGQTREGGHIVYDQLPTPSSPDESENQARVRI
In words: THP-1 lysate derived human ARG2 enzyme inhibition assay. The following applies: recombinant human IgG1, lysate without plasma (section 3.3), FIG. 13; read-out: THP-1 lysate ARG2 EIA IC50. It counts as biochemical. As for the experimental part: Anti-ARG2 IgGs were tested for their ability to inhibit mammalian expressed human ARG2 produced in transfected THP-1 cells. To do this cell lysates were prepared from THP-1 cells overexpressing human ARG2 and from wild type THP-1 cells. 350 million cells were suspended in 3 ml tris buffered saline (25 mM Tris+150 mM sodium chloride in dH2O, pH 7.4) and cell lysates prepared by passing through a 26G needle 20 times. A BCA assay was used to measure the protein concentration in the lysate. […] Antibodies were tested alongside N-Hydroxyl-L-Arginine (a small molecule competitive inhibitor of ARG2) as a positive control and CEA6 (irrelevant isotype control antibody) as a negative control. Data points were plotted and IC50 values determined using a four parameter fit in GraphPad Prism (FIG. 11, Table 13).
Anti-ARG2 IgGs were tested for their ability to inhibit to mammalian expressed human ARG2 produced in transfected THP-1 cells. […] Urea detection reagents, O-Phthaldialdehyde (1.5 mM O-Phthaldialdehyde, 7% H2SO4, 0.03% Brij L23) and N-(1-Napthyl)ethylenediamine (1.66 mM N-(1-Napthyl)ethylenediamine, 81 mM Boric acid, 21% H2SO4, 0.03% Brij L23) were mixed 1:1 just prior to use and 80 μl/well were added, incubated for 1 hour at room temperature and absorbance at 505 nm was read on a Pherastar plate reader. […]

The target in the next test is T2, monomeric ARG2 (Homo sapiens, UniProt P78540, E275Q).
T2 construct: human ARG2 (aa23-354); His10 (C); made in house; host or cells: E. coli
T2 sequence (P78540 23-354 E275Q): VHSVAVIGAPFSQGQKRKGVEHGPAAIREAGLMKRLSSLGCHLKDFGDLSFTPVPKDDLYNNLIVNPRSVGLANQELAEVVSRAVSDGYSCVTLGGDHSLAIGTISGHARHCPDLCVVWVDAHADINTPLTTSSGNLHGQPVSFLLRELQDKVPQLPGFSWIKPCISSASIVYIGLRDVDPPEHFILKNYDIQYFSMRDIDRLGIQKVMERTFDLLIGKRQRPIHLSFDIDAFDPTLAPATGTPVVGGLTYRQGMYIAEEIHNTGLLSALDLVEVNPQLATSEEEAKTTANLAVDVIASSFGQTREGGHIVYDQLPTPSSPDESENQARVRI
In words: Human monomeric ARG2 enzyme inhibition assay. Type of test: biochemical. The settings on record: purified recombinant human IgG1, FIG. 5. As to the method: ARG2 specific recombinant IgG1 were screened for their ability to inhibit enzymatic activity of monomeric ARG2. In this assay, the ability of ARG2 specific recombinant IgG1 to inhibit the enzymatic activity of monomeric ARG2 was determined by measuring the production of urea, the product of L-arginine turnover by monomeric ARG2.
IC50 values were determined by testing a dilution series of the ARG2 specific recombinant IgG1, prepared in TBS.
10 μl of ARG2 specific recombinant IgG1 (dilution series) were added to a Greiner Bio-One® 384 well assay plate (Greiner Bio-one, UK; cat: 781901). […]
Urea was detected by the simultaneous addition of equal volumes of O-Phthaldialdehyde (1.5 mM O-Phthaldialdehyde, 7% H2SO4, 0.03% Brij L23) and N-(1-Napthyl)ethylenediamine (1.66 mM N-(1-Napthyl)ethylenediamine, 81 mM Boric acid, 21% H2SO4, 0.03% Brij L23) followed by an 18 minute incubation at room temperature before the colorimetric product was quantified on the Pherastar by measuring absorbance at 505 nm.
ARG2 specific recombinant IgG1 were tested alongside N-Hydroxyl-L-Arginine (a small molecule competitive inhibitor of ARG2) as a positive control and NIP228 (irrelevant isotype control antibody) as a negative control. Data points were plotted and IC50 values determined using a four parameter fit in GraphPad Prism (FIG. 5).

B1: C0021158: anti-ARG2 antibody, second generation lead, VH SEQ ID NO: 272, VL SEQ ID NO: 277 (antibody, listed as Homo sapiens, V domains shown)
VH: EVQLLESGGGLVQPGGSLRLSCAASGFTFRYEVAAWVRQAPGKGLEWVSAISGPIPKGYYADSVKGRFTISRDNSKNTLYLQMNSLRAEDTAVYYCARLRADLGLYMDLWGRGTLVTVPS
VL: QSVLTQPPSVSAAPGQKVTISCSGSSSNIGNHYVSWYQQLPGTAPKLLIYDNSERTAGVPDRFSGSKSGTSATLGITGLQTGDEADYYCGTWDELTSNLVFGGGTKLTVL
modifications: C0021158
With B1, in test [1], the half-inhibitory concentration (IC50) was 5.36 nM.

B2: C0020065: anti-ARG2 antibody, alternate lead isolation clone, VH SEQ ID NO: 2, VL SEQ ID NO: 7 (antibody, listed as Homo sapiens, V domains shown)
VH: GVNLRESGGGVVQPGRSLRLSCAASGFTFSSYAMHWVRQAPGKGLEWVAVISYDGSNKYYVDSVKGRFTISRDNSKNTLYLQMNSLRAEDTAVYYCARDSSQLWFDYWGRGTLVTVSS
VL: QSVVTQPPSVSGAPGQRVTISCTGSSSNIGTGYDVHWYQQLPGTAPKLLIYGNSNRPSGVPDRFSGSKSGTSASLAITGLQAEDEADYYCQSYDSSLSGSVVFGGGTQLTVL
modifications: C0020065
As to B2, in the test with monomeric ARG2, the “inhibition of the activity of human monomeric ARG2” value was “inhibited”.
